Assay results: patent publication EP4806913A1 (Vaxcell-Bio Co., Ltd., dated 2025)
Blank lines part the entries; values can stand above or below the binder they belong to.

Biological target: T1, recombinant EphA2 protein (R&D systems) (human, UniProt P29317 25-534, limits assumed)
T1 construct: Bought protein coated on the ELISA plate at 1 ug/mL; also called hEphA2; human antigen EphA2
Assay: ELISA: recombinant EphA2 coated at 1 ug/mL, monobody-amh diluted twofold from 500 nM, detected with HRP anti-c-Myc antibody, OD 450 nm

T1 sequence (P29317 25-534 limits assumed): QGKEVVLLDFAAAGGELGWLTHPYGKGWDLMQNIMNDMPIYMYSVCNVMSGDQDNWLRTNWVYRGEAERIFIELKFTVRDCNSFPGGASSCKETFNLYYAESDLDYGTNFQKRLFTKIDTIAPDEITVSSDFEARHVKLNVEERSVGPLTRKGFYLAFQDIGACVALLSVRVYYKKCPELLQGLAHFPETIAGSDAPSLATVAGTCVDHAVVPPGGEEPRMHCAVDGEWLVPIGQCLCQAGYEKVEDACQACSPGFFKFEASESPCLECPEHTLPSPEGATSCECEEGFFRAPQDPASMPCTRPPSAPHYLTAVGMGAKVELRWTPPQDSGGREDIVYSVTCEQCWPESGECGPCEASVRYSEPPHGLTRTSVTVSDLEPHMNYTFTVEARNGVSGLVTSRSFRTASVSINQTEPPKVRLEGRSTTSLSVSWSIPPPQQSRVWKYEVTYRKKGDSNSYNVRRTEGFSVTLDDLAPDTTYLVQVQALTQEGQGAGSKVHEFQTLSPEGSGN

binding result: binds
B1: hpE1-amh (hydrophilic E1 monobody with C-terminal AviTag-Myc-6xHis tag) (designed binder)
chain: SSDSPRNLEVTNATPNSLTISWYYPFCAFYYRITYGETGGNSPSQEFTVPRPSDTATISGLKPGQDYTITVYAVTCLGSYSRPISINYRTEIDKPSQ
notes: Expressed in E. coli BL21(DE3) from pETamh and purified by IMAC and size exclusion; The gene was cloned at an NdeI site that includes the ATG start codon; also called hpE1 monobody; hydrophilic monobody(hpE1); not shown: amh tag (AviTag-Myc-6xHis) of the pETamh vector linked to the C-terminus

binding result: binds
B2: E1-amh (E1 monobody with C-terminal AviTag-Myc-6xHis tag) (designed binder)
chain: VSDVPRDLEVVAATPTSLLISWYYPFCAFYYRITYGETGGNSPVQEFTVPRPSDTATISGLKPGVDYTITVYAVTCLGSYSRPISINYRT
notes: Expressed in E. coli BL21(DE3) from pETamh and purified by IMAC and size exclusion; also called non-hydrophilic monobody(E1); E1 monomer; not shown: amh tag (AviTag-Myc-6xHis) of the pETamh vector linked to the C-terminus
